Laboratory results as given in the supplement of paper PMC10567573.

B1: C8orf76 (parent)
chain: KLAEAYLNLGPALSAALASSQKQH
B2: CROP (parent)
chain: VFGRGDNISDVSKFLEDDKWMEE

Variants of: B1
Assay: protein stability index of a GFP-peptide fusion (GPS, HEK-293T) (PSI 1-6); higher = more stable
Details: c terminus: a fixed tail appended
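Further: lentivirally expressed fusions sorted by FACS into six bins by GFP to DsRed ratio, PSI derived from sequencing read proportions per bin multiplied by bin number.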

Protein stability index: each site, then its substitutions
P11: D 2.26

Variants of: B2
Assay: as above
Details: c terminus: native

Protein stability index, by site and new letter:
W20: T 4.17 | E 4.25 | L 2.54 | D 4.04 | Y 3.39 | Q 3.4 | M 3.12 | I 3.97 | G 3.92 | A 4.2 | C 4.08 | R 3.94 | S 4.28 | K 3.78 | F 4.18 | N 4.72 | V 3.81 | H 4.34
D18: F 1.66 | K 2.69 | V 1.77 | W 2.04 | Q 2.98 | S 1.31 | C 1.47 | H 1.49 | N 2.44 | A 1.3 | P 3.66 | G 2.06 | L 1.97 | T 1.78
E22: K 4.73 | H 4.54 | Q 3.96 | L 4.07 | D 4.23 | W 3.33 | R 3.32 | V 4.25 | S 4.51 | I 3.81 | P 4.33 | T 4.94 | F 3.47 | N 4.31 | Y 3.73 | M 4.28 | C 4.69 | A 4.23
L15: Y 2.21 | V 1.94 | A 3.09 | I 1.93 | S 2.28 | T 3.47 | E 3.77 | G 2.8 | D 1.85 | Q 3.7 | F 1.06 | H 3.35 | C 2.64 | M 2.06 | P 2.81 | W 2.1 | K 3.01 | N 3.32 | R 2.91
E23: P 3.67 | R 4.6 | V 4.08 | H 4.53 | M 4.68 | S 4.6 | T 4.08 | Q 4.37 | K 4.76 | N 4.41 | Y 3.76 | C 4.1 | D 5
